Results reported in EP1960427B1.

Experiments:
[1] = target: heat-aggregated IgG (HAGG); experiment: BIAcore equilibrium binding, receptor injected over immobilised HAGG; single-binding site
[2] = target: human IgG monomer (Sandoglobulin, Novartis) (human); experiment: BIAcore equilibrium binding, receptor injected over immobilised IgG; single-binding site
[3] = target: dimer-IgG (Wright et al.), small immune complex; experiment: flow cytometry, inhibition of dimer-IgG binding to human neutrophils
[4] = target: immune complexes consisting of ovalbumin and anti-ovalbumin antibody (OVA ICs); experiment: cell-based or functional assay
[5] = target: heat-aggregated IgG (HAGG); experiment: cell-based or functional assay
[6] = target: heat-aggregated IgG (HAGG); experiment: flow cytometry, block of HAGG binding to IIA1.6 cells with human FcγRIIb
[7] = target: dimer-IgG (Wright et al.), small immune complex; experiment: flow cytometry, inhibition of dimer-IgG binding to human neutrophils from two individuals
[8] = target: heat-aggregated IgG (HAGG); experiment: BIAcore equilibrium binding over immobilised HAGG
[9] = target: human IgG monomer (Sandoglobulin, Novartis) (human); experiment: BIAcore equilibrium binding over immobilised IgG
[10] = target: heat-aggregated IgG (HAGG); experiment: BIAcore equilibrium binding over immobilised HAGG; two-binding site model, KD2
[11] = target: human IgG monomer (Sandoglobulin, Novartis) (human); experiment: BIAcore equilibrium binding over immobilised human IgG monomer; two-binding site model, KD1
[12] = target: heat-aggregated IgG (HAGG); experiment: BIAcore equilibrium binding over immobilised HAGG; two-binding site model, KD1
[13] = target: human IgG monomer (Sandoglobulin, Novartis) (human); experiment: BIAcore equilibrium binding over immobilised human IgG monomer; two-binding site model, KD2

Kd [1]	Kd [2]	IC50 [3]	IC50 of TNF-α release from MC/9 cells induced by OVA ICs [4]	IC50 of HAGG-induced platelet activation (CD41 and CD62P positive platelets) [5]	IC50 [6]	IC50 [7]	fold lesser KD1 than the KD of monomeric rsFcγRIIa [8]	fold greater avidity than the monomeric receptor [9]	Kd [10]	Kd [11]	fold potency over rsFcγRIIa monomer, TNF-α release from MC/9 cells [4]	fold potency over rsFcγRIIa monomer, HAGG-induced platelet activation [5]	fold more potent than the monomer protein [6]	fold more active than rsFcγRIIa monomer [3]	Kd [12]	Kd [13]	Substance
1050 nM	1700 nM	10.5 µg/mL															recombinant soluble FcγRIIa monomer (rsFcγRIIa monomer), expressed in HEK 293E cells from pBAR426 (from UniProt P12318 34-217) (receptor)
			17.7 µg/mL	20.9 µg/mL	2.08 µg/mL												rsFcγRIIa monomer (R&D Systems, Cat # 1330-CD/CF) (from UniProt P12318 36-218) (receptor)
		1.1 µg/mL	2.1 µg/mL	3.9 µg/mL	0.0039 µg/mL	0.9 to 1.1 µg/mL	300 fold	300 fold	99 nM	3.2 nM	8 fold	5 fold	> 500 fold	10 fold	2.73 nM	100 nM	recombinant soluble FcγRIIa head to tail homodimer (rsFcγRIIa dimer), construct of Figure 1 (pBAR397/pBAR427) (from UniProt P12318 34-215; P12318 36-215) (receptor)
